The data set has as its system HUVECs. Nature of the data set: Apoptosis analysis, annexin V-FITC/PI flow cytometry. The format is cell-based, human. The note with it: 24 h, rhTRAIL 100 ng mL^–1 as positive control. The method, then: To evaluate the number of apoptotic cells after treatment of AHP‐DRI‐12 and PEG‐tAHP‐DRI, 5 × 10^5 HUVECs were seeded in six‐well plates and treated with rhTRAIL (100 ng mL^–1, Peprotech) or AHP‐DRI‐12 and PEG‐tAHP‐DRI (0.1 × 10^–6, 1.0 × 10^–6, 10 × 10^–6 M AHP‐DRI‐12). After incubating for 24 h, HUVECs were harvested and resuspended in 100 µL binding buffer, and then stained with FITC‐labeled annexin V and propidium iodide (PI) (BD Biosciences) according to the manufacturer's instructions. The apoptotic number of HUVECs was measured by flow cytometry.
On the technique in general: A flow cytometer gives signals particle by particle.

TRAIL: the HUVECs undergoing apoptosis is listed as 30%.

(Values after PMC8188212, “Multi‐Arm PEG/Peptidomimetic Conjugate Inhibitors of DR6/APP Interaction Block Hematogenous Tumor Cell Extravasation” (Advanced Science, 2021).)
